In the Human Domainome abundance scans (Beltran et al. 2025) one finds abundance fitness data, which are given here for 68 variants.

B1: Protein C-ets-1, residues 55 to 135; numbered along this chain, P14921 (parent)
chain: GFTKEQQRLGIPKDPRQWTETHVRDWVMWAVNEFSLKGVDFQKFCMNGAALCALGKDCFLELAPDFVGDILWEHLEILQKE

± gives the uncertainty stated by the source.

In this data set the parent is B1. Description: abundance fitness (aPCA) (normalised: wild type 0, dead -1); higher = more abundant; growth selection in yeast, the domain comes from the species named. The note with it: Homo sapiens.
With GFTKEQQRLLIPKDPRQWTETHVRDWVMWAVNEFSLKGVDFQKFCMNGAALCALGKDCFLELAPDFVGDILWEHLEILQKE, the abundance fitness was -0.244 ± 0.038. The value for GFTKEQQRLGIPKDPRQWTETHVRDWVMWAVNEFSLKGVDFQKFCMNGAALCPLGKDCFLELAPDFVGDILWEHLEILQKE was -0.943 ± 0.082. The value for GFTKEQQRLGIPKDPRQWTETHVRDWVMWAVNEFSLKGVDFQKFCMHGAALCALGKDCFLELAPDFVGDILWEHLEILQKE was -0.152 ± 0.081. The value for GFTKEQQRLGIPKDPRQWTETHVRDWVMWAVNEFSLKGVDFQKFCMCGAALCALGKDCFLELAPDFVGDILWEHLEILQKE was -0.223 ± 0.062; that for GFTKEQQRLGIPKDPRQWTETHVRDWVMWAVNEFSLKGVDFQKFCMEGAALCALGKDCFLELAPDFVGDILWEHLEILQKE was -0.165 ± 0.085; that for GFTKEQQRLGIPKDPRQWTETHVRDWVMWAVNEFSLKGVDFQKFCMNGAALCALGKDCFLELAPDFVGDILWPHLEILQKE was -0.898 ± 0.11. As for GFTKEQQRLGIPKDPRQWTETHVRDWVMWAVNEFSLKGVDFQKFCMNGAALCALGKDCFLELAPDFVGDILWIHLEILQKE, the abundance fitness is -0.651 ± 0.15. The value for GFTKEQQRLGIPKDPRQWTETHVRDWVMWAVNEFSLKGVDFQKFCMNGAALCALGKDCFLELAPDFVGDILWVHLEILQKE was -0.546 ± 0.053; that for GFTKEQQRLGIPKDVRQWTETHVRDWVMWAVNEFSLKGVDFQKFCMNGAALCALGKDCFLELAPDFVGDILWEHLEILQKE was -0.1 ± 0.038. The value for GFTKEQQRLGIPKDPRQWTETHVRDWVMWAVSEFSLKGVDFQKFCMNGAALCALGKDCFLELAPDFVGDILWEHLEILQKE was -0.008 ± 0.032; that for GFTKEQQRLGIPKDPRQWTETHVRDWVMWAVFEFSLKGVDFQKFCMNGAALCALGKDCFLELAPDFVGDILWEHLEILQKE was -0.399 ± 0.073; that for GFTKEQQRLGHPKDPRQWTETHVRDWVMWAVNEFSLKGVDFQKFCMNGAALCALGKDCFLELAPDFVGDILWEHLEILQKE was -0.364 ± 0.13. The value for GFTKEQQRLGIPKDPRQWTETHVRDWVMWAVNEFSLKGVDFQKFCMNGAALCALGKDCFLELAPDPVGDILWEHLEILQKE was 0.048 ± 0.044; that for GFTKEQQRLGIPKDPRQWTETHVRDWVMWAVNEFSLKGVDFQKFCMNGAALCALGKDCQLELAPDFVGDILWEHLEILQKE was -0.836 ± 0.08; that for GFTKEQQRLGIPKDPRQWTETHVRDWVMWAVNEFSLKGVDFQKFCMNGAALCALGKDCFLELAPDFVGDILWEHLEDLQKE was -0.033 ± 0.1. For GFTKEQQRLGIPKDPRQWTEYHVRDWVMWAVNEFSLKGVDFQKFCMNGAALCALGKDCFLELAPDFVGDILWEHLEILQKE, the abundance fitness was found to be 0.043 ± 0.12. The value for GFTKEQQRLGIPKDPRQWTETHVRDWVWWAVNEFSLKGVDFQKFCMNGAALCALGKDCFLELAPDFVGDILWEHLEILQKE was -0.11 ± 0.039. The value for GFTKEQQRLGIPKDPRQWTETHVRDWVYWAVNEFSLKGVDFQKFCMNGAALCALGKDCFLELAPDFVGDILWEHLEILQKE was -0.153 ± 0.087.

On to GFTKEQQRLGIPKDPRQWTETHVRDWVCWAVNEFSLKGVDFQKFCMNGAALCALGKDCFLELAPDFVGDILWEHLEILQKE, for which the abundance fitness was -0.006 ± 0.054. The value for GFTKEQQKLGIPKDPRQWTETHVRDWVMWAVNEFSLKGVDFQKFCMNGAALCALGKDCFLELAPDFVGDILWEHLEILQKE was -0.062 ± 0.061; that for GFTKEQQRYGIPKDPRQWTETHVRDWVMWAVNEFSLKGVDFQKFCMNGAALCALGKDCFLELAPDFVGDILWEHLEILQKE was -0.158 ± 0.12; that for GFTKEQQRLGIPKDPRQWTETHVRDWVMWAVNEFSLKGVDFQKFCMNGAALCALGKICFLELAPDFVGDILWEHLEILQKE was -0.185 ± 0.09. The value for GFTKEQQRLGIPKDPRQWTETHVRDWVMWAVNEFSLKGVDFQKFCMNGAALCALGKDCFLELAWDFVGDILWEHLEILQKE was -0.938 ± 0.12.

For the variant GFTKEQQRLGIQKDPRQWTETHVRDWVMWAVNEFSLKGVDFQKFCMNGAALCALGKDCFLELAPDFVGDILWEHLEILQKE, the abundance fitness is -0.814 ± 0.12.

With GFTKEQQRLGIPKDPRQWTETHVRDWVMWAVNEFSLKGMDFQKFCMNGAALCALGKDCFLELAPDFVGDILWEHLEILQKE, the abundance fitness was -0.267 ± 0.065. GFTKEQQRLGIPKDPRQWTETHVRDWVMWAVNEFSLKGHDFQKFCMNGAALCALGKDCFLELAPDFVGDILWEHLEILQKE: the abundance fitness was -0.537 ± 0.13.

Take GFTKEQQRLGIPKDPRQWTETHVRDWVMWAVNEFSLKGVDFQKFCMNGAALCALGIDCFLELAPDFVGDILWEHLEILQKE: the abundance fitness was -0.702 ± 0.11. As to GFTKEQQRLGIPKDPRQWTETIVRDWVMWAVNEFSLKGVDFQKFCMNGAALCALGKDCFLELAPDFVGDILWEHLEILQKE, the abundance fitness is -0.881 ± 0.17. On to GFTKEQQRLGIPKDPRQWTETHVRDWVMWAVNEFSLKGVDFQKFCGNGAALCALGKDCFLELAPDFVGDILWEHLEILQKE, for which the abundance fitness is -0.671 ± 0.046. The value for GFTKEQQRLGIPKDPRQWTETHVRDWVMWAVNEFSLKGVDFQKFCCNGAALCALGKDCFLELAPDFVGDILWEHLEILQKE was -0.317 ± 0.076; that for GFTKEQQRLGIPKDPRQWTETHVRDWVMWAVNEFSLKGVDFQKFCMNGAALCALGKDCFLELAPDFVGTILWEHLEILQKE was -0.134 ± 0.055. The value for GFTKEQQRLGIPKDPRQWTETHVRDWVMWAVNEFSLKGVDFQKFCMNGAALCALGKDCFLELAPDFVGDILYEHLEILQKE was 0.11 ± 0.075; that for GFTKEQQRLGIPKDPRQWTETHRRDWVMWAVNEFSLKGVDFQKFCMNGAALCALGKDCFLELAPDFVGDILWEHLEILQKE was -0.686 ± 0.059; that for GFTKEQQRLGIPKDPRQWTETHVRDWVMWAVNEFSLKGVDFQKFCMNGWALCALGKDCFLELAPDFVGDILWEHLEILQKE was -0.3 ± 0.032. The value for GFTREQQRLGIPKDPRQWTETHVRDWVMWAVNEFSLKGVDFQKFCMNGAALCALGKDCFLELAPDFVGDILWEHLEILQKE was -0.071 ± 0.036. Regarding GFTEEQQRLGIPKDPRQWTETHVRDWVMWAVNEFSLKGVDFQKFCMNGAALCALGKDCFLELAPDFVGDILWEHLEILQKE, the abundance fitness came out at 0.008 ± 0.059. As for GFTNEQQRLGIPKDPRQWTETHVRDWVMWAVNEFSLKGVDFQKFCMNGAALCALGKDCFLELAPDFVGDILWEHLEILQKE, the abundance fitness came to 0.024 ± 0.11. The value for GFTKEQQRLGIPKDPRQWTETHVRDWVMWAVNEFSLKGVDFQKFCMNGAALCALGKDCFLEFAPDFVGDILWEHLEILQKE was -0.298 ± 0.062; that for GFAKEQQRLGIPKDPRQWTETHVRDWVMWAVNEFSLKGVDFQKFCMNGAALCALGKDCFLELAPDFVGDILWEHLEILQKE was -0.032 ± 0.042. As to GFTKFQQRLGIPKDPRQWTETHVRDWVMWAVNEFSLKGVDFQKFCMNGAALCALGKDCFLELAPDFVGDILWEHLEILQKE, the abundance fitness is -0.088 ± 0.07. The value for GFTKEQQRLGIPKDPRQWTETHVRDWVMWAVNEFSLKGVDFQKFCMNGAALCALGKDCFLELAPDFVGDELWEHLEILQKE was -0.365 ± 0.052; that for GFTKEQQRLGIPKDPRQWTETHVRDWVMWAVNEFSLKGVDFQKFCMNGAALCALGKDCFLELAPDFVGDGLWEHLEILQKE was -0.705 ± 0.054.

Regarding GFTKEQQRLGIPKDPRQWTETHVRDWVMWAVNEFSLKGVDFQKFCMNGAALCALGKDCFLELAPDFVGDILWEYLEILQKE, the abundance fitness was -0.454 ± 0.12. The value for GFTKEQQRLGIPEDPRQWTETHVRDWVMWAVNEFSLKGVDFQKFCMNGAALCALGKDCFLELAPDFVGDILWEHLEILQKE was -0.084 ± 0.053; that for GFTKEQQRLGIPGDPRQWTETHVRDWVMWAVNEFSLKGVDFQKFCMNGAALCALGKDCFLELAPDFVGDILWEHLEILQKE was -0.088 ± 0.034. The value for GFTKEQQRLGIPKDPRQWTETHVRDWVMWAVNEFSLKGVDFQKFCMNGAYLCALGKDCFLELAPDFVGDILWEHLEILQKE was -0.351 ± 0.1. The value for GFTKEQQRLGIPKDPRQWTETHVRDWVMWAVNEFSLKGVDFQKFCMNGAALCALGKDCFLELAPDFVGDIFWEHLEILQKE was -0.697 ± 0.15.

Take GFTKEQQRLGIPKDPRQWTETHVRDWVMWAVNEFSLKGVDFQKFCMNGAALCALGKDCFLELAPDFVGDIDWEHLEILQKE: the abundance fitness was -0.657 ± 0.14.

Consider GFTKEQQRLGIPKDPRQWTETHVRDWVMWAVNEFSLKGVDFQKFCMNGAALCALKKDCFLELAPDFVGDILWEHLEILQKE, for which the abundance fitness amounted to 0.029 ± 0.059. The value for GFTKEQQRLGIPKDPRQWTETHVRDWVMWAVNEFSLKGVDFQKFCMNGAALCALTKDCFLELAPDFVGDILWEHLEILQKE was 0.041 ± 0.04.

As for GFTKEQQRLGIPKDPRQWTETHVRDWVMWAVNEFSLKGVDFQKFCMNGAALCALGKDCFLPLAPDFVGDILWEHLEILQKE, the abundance fitness was -0.234 ± 0.036. The value for GFTKEQQRLGIPKDPRQWTETHVRDWVMWAVNEFSLKGVDFQKHCMNGAALCALGKDCFLELAPDFVGDILWEHLEILQKE was -0.89 ± 0.22; that for GFTKEQQRLGIPKDPRQWTETHVRDWVMWAVNEFSLKGVDFQKECMNGAALCALGKDCFLELAPDFVGDILWEHLEILQKE was -0.73 ± 0.1; that for GFTKEQQRLGIPKDPRQWTETHVRDWVMWAVNEFSLKGVDFQKFCMNGAALCALGKDCFLELAPDFVGDILWEHLEIMQKE was -0.116 ± 0.087. The value for GFTKEQKRLGIPKDPRQWTETHVRDWVMWAVNEFSLKGVDFQKFCMNGAALCALGKDCFLELAPDFVGDILWEHLEILQKE was 0.074 ± 0.068; that for GFTKEQQRLGIPKDPRQWTETHVRDWVMWAVNEYSLKGVDFQKFCMNGAALCALGKDCFLELAPDFVGDILWEHLEILQKE was -0.023 ± 0.052. For the variant GFTKEQQRLGIPKDPRQWTETHVRDWVMWAVNGFSLKGVDFQKFCMNGAALCALGKDCFLELAPDFVGDILWEHLEILQKE, the abundance fitness was -0.539 ± 0.03. The value for GFTKEQQRLGIPKDPRQWTETHVRDWVMWAVNQFSLKGVDFQKFCMNGAALCALGKDCFLELAPDFVGDILWEHLEILQKE was -0.099 ± 0.051; that for GFTKEQQRLGIPKDPRQWTETHVRDWVMDAVNEFSLKGVDFQKFCMNGAALCALGKDCFLELAPDFVGDILWEHLEILQKE was -0.685 ± 0.064; that for GFTKEQQRLGIPKDPRQWTETHVRDWVMSAVNEFSLKGVDFQKFCMNGAALCALGKDCFLELAPDFVGDILWEHLEILQKE was -0.395 ± 0.034. The value for GFTKEQQRLGIPKDPRQWTETHVRDWVMWAVNEFSLKGVDFQKFCMNGAALCALGKDCFLELAPDFVGDILWEHLVILQKE was -0.108 ± 0.045; that for GFTKEQQRLGIPKDPRQWTETHVRDWVMWAVNEFSLKGVDRQKFCMNGAALCALGKDCFLELAPDFVGDILWEHLEILQKE was -0.094 ± 0.03. The value for NFTKEQQRLGIPKDPRQWTETHVRDWVMWAVNEFSLKGVDFQKFCMNGAALCALGKDCFLELAPDFVGDILWEHLEILQKE was 0.143 ± 0.27; that for GFTKEQQRLGIPKDPRQWTETHVRDWVMWAVNEFSLKGVDFQKFCMNGAALCALGKDCFLELAPDFVGDILWEHKEILQKE was -0.466 ± 0.14. As to GFTKEQQRLGIPKDPRQWTETHVRDWVMWAVNEFSLKGVDFQKFCMNGAALCALGKDCFLELAPDFVGDILWEHSEILQKE, the abundance fitness is -0.796 ± 0.059. The value for GFTKEQQRLGIPKDPRQWTETHVRDWVMWAANEFSLKGVDFQKFCMNGAALCALGKDCFLELAPDFVGDILWEHLEILQKE was 0.018 ± 0.037. The value for GFTKEQQRLGIPKDPRQWTETHVRDWVMWAVNEFSLKGVDFQKFCMNKAALCALGKDCFLELAPDFVGDILWEHLEILQKE was -0.911 ± 0.35; that for GFTKEQQRLGIPKDPRQWTETHVRDWVMWAVNEFSLDGVDFQKFCMNGAALCALGKDCFLELAPDFVGDILWEHLEILQKE was -0.022 ± 0.052.
